From paper PMC10770758, “Protocatechuate hydroxylase is a novel group A flavoprotein monooxygenase with a unique substrate recognition mechanism” (The Journal of Biological Chemistry, 2023) come the findings set out here.

One data set has as its system O=C(O)c1ccc(O)c(O)c1. Put plainly: purified protein. The format is biochemical, Xylophilus ampelinus. The note with it: apparent, 0.25 mM NADPH, 20 mM Tris-HCl pH 7.9, 25 °C.
In another data set the test system is O=C(O)c1ccc(O)cc1. Put plainly: purified protein. The format is biochemical, Xylophilus ampelinus. The settings on record: apparent, 0.25 mM NADPH, 20 mM Tris-HCl pH 7.9, 25 °C.

Turning to XaPobA (Xylophilus ampelinus; M210A), the Km with O=C(O)c1ccc(O)c(O)c1 is 9.6 ± 0.3 × 10^−1 mM. Regarding XaPobA (Xylophilus ampelinus; C347T), the Km in the data set with O=C(O)c1ccc(O)cc1 is given as 9.1 ± 3.4 × 10^−1 mM; with O=C(O)c1ccc(O)c(O)c1, 3.2 ± 1.0 × 10^−1 mM. On to XaPobA (Xylophilus ampelinus; W201Y), for which the Km in the data set on O=C(O)c1ccc(O)cc1 is 7.2 ± 2.2 × 10^−2 mM; with O=C(O)c1ccc(O)c(O)c1, 5.0 ± 1.1 × 10^−1 mM.

On to XaPobA (Xylophilus ampelinus; W201A), for which the Km with O=C(O)c1ccc(O)c(O)c1 is reported as 6.5 ± 2.7 × 10^−1 mM.
